Tests used:
Assay in all cases: EMSA
Settings in all cases: 25 mM Tris-HCl pH 7.5, 50 mM KCl, 0.5 mM MgCl2, 100 µg/ml BSA, 1 mM DTT, 10% glycerol; 0.1 µM DNA; 37°C, 30 min; 1% agarose gel, ethidium bromide
[1] = tested on: MBP-3B2ct (C-terminal DNMT3B2);GST-3B2ct (human;human)
[2] = tested on: MBP-3B3ct (C-terminal DNMT3B3) (human)
[3] = tested on: MBP-3B2ct (C-terminal DNMT3B2);GST-3B3ct (human;human)
[4] = tested on: MBP-3B2ct (C-terminal DNMT3B2) (human)
[5] = tested on: MBP-3B4ct (C-terminal DNMT3B4) (human)

420 bp DNMT3B PWWP fragment
Kd [1]: 400 nM
Kd [2]: 160 nM
Kd [3]: 1500 nM
Kd [4]: 220 nM
Kd [5]: 2420 nM
